This assay concerns the target GST-Keap1 (human, UniProt Q14145 1-624). The experiment in a line: pull-down.

GST-Keap1, sequence (Q14145 whole entry): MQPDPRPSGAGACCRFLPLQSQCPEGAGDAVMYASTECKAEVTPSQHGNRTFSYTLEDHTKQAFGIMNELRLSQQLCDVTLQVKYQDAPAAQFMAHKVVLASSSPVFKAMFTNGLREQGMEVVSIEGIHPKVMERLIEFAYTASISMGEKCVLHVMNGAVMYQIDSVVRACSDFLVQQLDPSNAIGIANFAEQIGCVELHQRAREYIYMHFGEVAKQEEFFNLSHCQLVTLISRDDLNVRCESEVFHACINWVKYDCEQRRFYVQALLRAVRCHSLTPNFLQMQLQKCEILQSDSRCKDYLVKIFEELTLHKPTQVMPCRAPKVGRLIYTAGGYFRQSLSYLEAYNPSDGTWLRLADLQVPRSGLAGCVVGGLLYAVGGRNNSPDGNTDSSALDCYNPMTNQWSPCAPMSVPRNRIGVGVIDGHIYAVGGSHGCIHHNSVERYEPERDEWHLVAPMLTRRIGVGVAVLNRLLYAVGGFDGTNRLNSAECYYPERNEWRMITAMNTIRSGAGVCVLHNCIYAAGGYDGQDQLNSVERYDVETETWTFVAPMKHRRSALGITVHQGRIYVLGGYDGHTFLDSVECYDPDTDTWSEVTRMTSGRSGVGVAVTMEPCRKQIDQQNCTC

B1: His-SRX (natural protein)
chain: not shown
In the case of B1, the binding result is recorded as “binds”.
